Our source for the percent homodimer values is PMC3666556.

Like-named read-outs stand apart in the source and are kept apart here.

Common to all, as to assay: cross-linking
Experiment [1] addresses K140C-apoA-I (human).
In experiment [2] the target is K140C-apoA-I (human). This is another data set of the same source.
Experiment [3] has as its target G129C-apoA-I (human).
Experiment [4] addresses G129C-apoA-I (human). This is another data set of the same source.
Experiment [5] has as its target K118C-apoA-I (human) (UniProt P02647).
Experiment [6] shares this target. The source holds these as a separate data set.

As to K140C-apoA-I (natural protein), the figures for the percent homodimer in experiment [1] and in experiment [2] were 65% and 41%, respectively.
As to G129C-apoA-I (natural protein), the percent homodimer in experiment [3] worked out at 38%; in experiment [4] it was 22%.
For the substance “K118C-apoA-I (from UniProt P02647 19-267) (natural protein)”, the figures for the percent homodimer in experiment [5] and in experiment [6] were 17% and 4%, respectively.
